Our source for the Km and Vmax values is PMC3679732, “Cloning and characterization of bifunctional enzyme farnesyl diphosphate/geranylgeranyl diphosphate synthase from Plasmodium falciparum” (Malaria Journal, 2013).

Holding throughout (assay): purified protein
Assay type in all cases: biochemical, Plasmodium falciparum

Substrate in data set [1]: CC(C)=CCC/C(C)=C/CC/C(C)=C/CO[P@@](=O)(O)OP(=O)(O)O
As to conditions: Mg2+ ([…] MgCl2 in assay) allylic substrate; DMAPP, GPP, and FPP all compete for binding to the free enzyme active site.

Substrate in data set [2]: C=C(C)CCO[P@@](=O)(O)OP(=O)(O)O
Conditions: Mg2+ ([…] MgCl2 in assay) second substrate.

Substrate in data set [3]: CC(C)=CCC/C(C)=C/COP(=O)(O)OP(=O)(O)O
As to conditions: Mg2+ ([…] MgCl2 in assay) allylic substrate; DMAPP, GPP, and FPP all compete for binding to the free enzyme active site.

Substrate in data set [4]: CC(C)=CCOP(=O)(O)OP(=O)(O)O
As to conditions: Mg2+ ([…] MgCl2 in assay) allylic substrate; DMAPP, GPP, and FPP all compete for binding to the free enzyme active site.

B1: farnesyl diphosphate/geranylgeranyl diphosphate synthase (rPfFPPS) (Plasmodium falciparum 3D7) (protein)
chain: MENEQNNQDSENGLDYFRSMYDRYRDVFINHINDYVLEDDIKIIISKYYKLLFDYNCLGGKNNRGILVILIYEYVKNRDINCNEWEKVACIAWCIEILQASFLVADDIMDKGETRRNKHCWYLLKDVEIKNAVNDVFLLYNAIYKLLDVYLRNDNCYLDLITSFREATLKTIVGQHLDTNIFSDKYSHIDKDIDVNNINISQENKININMLNFKVYQNIIIHKTAYYSFFLPIVCGMQMGGISLDNLLYKKVENIAILMGEYFQVHDDYIDTFGDSKKTGKVGSDIQNNKLTWPLIKAFELCSQPEKEDIIRNYGKDNVTCIKFINDIYEHYNIRDHYVEYEKKQKMKILEAINQLHHEGIEYVLKYVMDILFTGA
notes: full length protein expressed as a GST fusion protein
One may read the Km as the concentration of substrate that gives half-maximal velocity. One may read the Vmax as the top rate of the reaction or transport when substrate is in excess. Take B1: the Km in “purified protein [1]” amounted to 2.06 ± 0.4 µM; in “purified protein [2]”, 2.4 ± 0.3 µM; in “purified protein [3]”, 7.8 ± 1.3 µM; in “purified protein [4]” it was 68 ± 5 µM. Moreover, the Vmax in the data set “purified protein [1]” turned out to be 0.327 µmol/min/mg; in the data set “purified protein [2]” it was 0.156 µmol/min/mg; in “purified protein [3]” it was 0.341 µmol/min/mg; in the data set “purified protein [4]” it was 0.453 µmol/min/mg.
